This is an account of results in US20240343806A1 (EUCURE BEIJING BIOPHARMA, published 2024).

Experiment [1] has as its target T1, mouse CTLA4 (mouse, UniProt P09793 36-223).
T1 construct: Expressed on transfected CHO cells; also called mCTLA4
The experiment can be described thus: flow cytometry on CHO-mCTLA4 cells; SSC vs Anti-Human-IgGFc-FITC. Here is the method:
25 ul CHO cells were added to each well.
After being washed with PBS (1200 rmp, 5 min) twice, 50 ul of anti-human IgG Fc antibody fluorescein isothiocyanate conjugate (IgG Fc-FITC) was added at 1:100 dilution into each well and was incubated at 4° C. for 30 minutes, followed by PBS wash. The signals for FITC were determined by flow cytometry.

The target of experiment [2] is T1, mouse CTLA4. The experiment in a line: flow cytometry on CHO-mCTLA4 cells; SSC vs Anti-mouse-IgGFc-FITC.

Numbering of substitutions follows the chain as printed.

T1 sequence (P09793 36-223 S182T limits assumed): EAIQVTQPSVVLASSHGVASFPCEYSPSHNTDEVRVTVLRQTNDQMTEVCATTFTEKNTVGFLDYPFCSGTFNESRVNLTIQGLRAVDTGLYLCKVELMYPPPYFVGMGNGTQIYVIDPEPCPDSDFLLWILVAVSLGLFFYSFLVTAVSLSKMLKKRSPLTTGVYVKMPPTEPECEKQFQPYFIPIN

B1: CT4-04-13A4-mHvKv-IgG1 (antibody, V domains shown)
VH: QVQLQQSGAELVRPGASVTLSCKASGYTFTDYEMHWVKQTPVHGLEWIGVIDPETGGTAYNQKFKGKATLTADRSSSTAYMELRSLTSEDSAVYYCTRGTTVVGLDYWGQGTTLTVSS
VL: DIQMTQSPASLSASVGESVTITCRASGNIHNYLAWYQQKQGKSPQLLVYKEKTLTDTVPSRFSGSGSGTQFSLKINSLQPEDFGSYYCQHFWSTPWTFGGGTNLEIK
In the case of B1, in the experiment with mouse CTLA4 [1], the binding result is on record as “no binding (tested: 1 ug/ml)”.

B2: CT4-20-6D2 (antibody, V domains shown)
VH: QVQLQQSGAELVRPGASVTLSCKASGYTFTDYEMHWVKQTPVHGLEWIGTIDPETGGTAYNQKFKGKATLTTDKSSSTAYMELRSLTSEDSAVYYCTRRGKYGNYDYVMDYWGQGTSVTVSS
VL: B1 VL with S18T, Y49F, K50N, E51A, T55A, T57G, F71Y, S85N, N103K
notes: Mouse monoclonal antibody purified from ascites fluid
With B2, in the experiment with mouse CTLA4 [2], the binding result is “no binding (tested: 1 ug/ml)”.

B3: CT4-20-7E12 (antibody, V domains shown)
VH: EVKLDETGGGLVQPGRPMKLSCVASGFTFSDYWMNWVRQSPEKGLEWVAQIRNKPYNYETHYSDSVKGRFTISRDDSKSSVYLQMNNLRGEDMGIYYCTGTFAYWGQGTLVTVSA
VL: DIQMTQSPTSLSASVGETVTITCGTSENIYGGLNWYQRKQGKSPQLLIYGATNLADGMSSRFSGSGSGRQYSLKISSLHPDDVATYYCQNVLSTPYTFGGGTKLEIK
notes: as for B2
As for B3, the binding result with mouse CTLA4 [2] is reported as “no binding (tested: 1 ug/ml)”.

B4: CT4-03-4G12-mHvKv-IgG1 (antibody, V domains shown)
VH: DVKLVESGGGLVKPGGSLKLSCTASGFTFSSYTMSWVRQTPEKRLEWVATISRGGGYTSYPDSVKGRFTISRDNAKNTLYLQMSSLQSEDTAMYYCARDDYGSSYVHWFAYWGQGTLVTVSA
VL: DIQMTQSPASLSASVGETVTITCRAGENIYSYLAWYQQKQGKSPQLLVYNARTLAEGVPSRFSGSGSGTQFSLKINSLQPEDFGSYYCQHHYGSPRTFGGGTKLEIK
In the case of B4, the binding result in the experiment with mouse CTLA4 [1] was “no binding (tested: 1 ug/ml)”.
